# Like-named read-outs stand apart in the source and are kept apart here. Where no end group is shown, it is not given here.
# T1: Adrenomedullin 1-52-Gly (ADM-Gly) (human, not fully specified)
# T1 peptide: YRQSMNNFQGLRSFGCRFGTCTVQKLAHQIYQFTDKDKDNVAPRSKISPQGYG
# B1: mature human Adrenomedullin (Human ADM 1-52) (peptide)
# peptide: YRQSMNNFQGLRSFGCRFGTCTVQKLAHQIYQFTDKDKDNVAPRSKISPQGY-NH2
# modifications: ends and bridges not checked
# B2: HAM8101 (antibody, human IgG1, kappa, V domains shown)
# VH: QVQLVQSGAEVKKPGSSVKVSCKASGYTFSRYWIEWVRQAPGQGLEWIGEILPGSGSTNYNQKFQGRVTITADTSTSTAYMELSSLRSEDTAVYYCTEGYEYDGFDYWGQGTTVTVSS
# VL: DVVLTQSPLSLPVTLGQPASISCRSSQSIVYSNGNTYLEWYLQRPGQSPRLLIYRVSNRFSGVPDRFSGSGSGTDFTLKISRVEAEDVGVYYCFQGSHIPYTFGGGTKLEIKR
# B3: Mouse ADM 1-50 (peptide)
# peptide: YRQSMNQGSRSNGCRFGTCTFQKLAHQIYQLTDKDKDGMAPRNKISPQGY-NH2
# modifications: ends and bridges not checked
# Legend:
# Assay in all cases: cell-based or functional assay
# [1] = target: T2, human recombinant adrenomedullin receptor (CRLR+RAMP3) (human)
# T2 sequence (Q16602 whole entry, chain 1 of 2): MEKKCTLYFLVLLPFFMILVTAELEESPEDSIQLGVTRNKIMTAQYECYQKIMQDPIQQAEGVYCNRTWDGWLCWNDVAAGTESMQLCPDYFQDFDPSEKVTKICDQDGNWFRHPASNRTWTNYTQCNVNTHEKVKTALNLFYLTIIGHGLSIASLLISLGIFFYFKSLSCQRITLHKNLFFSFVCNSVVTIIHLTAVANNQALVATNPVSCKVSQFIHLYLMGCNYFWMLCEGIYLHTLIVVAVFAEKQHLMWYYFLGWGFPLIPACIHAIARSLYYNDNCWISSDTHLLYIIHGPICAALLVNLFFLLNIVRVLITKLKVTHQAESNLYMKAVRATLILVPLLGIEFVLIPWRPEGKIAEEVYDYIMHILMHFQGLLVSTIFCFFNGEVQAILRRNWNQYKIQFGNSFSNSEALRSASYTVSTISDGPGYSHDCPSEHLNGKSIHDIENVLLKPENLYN
# T2 sequence (O60896 whole entry, chain 2 of 2, further chain): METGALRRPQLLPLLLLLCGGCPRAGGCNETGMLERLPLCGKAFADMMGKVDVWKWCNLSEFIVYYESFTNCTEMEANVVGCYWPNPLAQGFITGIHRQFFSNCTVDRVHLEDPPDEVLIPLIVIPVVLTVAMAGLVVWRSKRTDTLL
# [2] = target: T1, Adrenomedullin 1-52-Gly (ADM-Gly)
# [3] = target: T2, human recombinant adrenomedullin …; remark: listed apart in the source
binder,measurement,setting,value
B1,"EC50 (read off the curve), cAMP stimulation",[1],~1 nM
B2,"formation of bio-ADM from ADM-Gly by native human plasma PAM after 90 minutes, with 300 µg/mL HAM8101 against without",[2],4 fold
B3,"EC50 (read off the curve), cAMP stimulation",[3],~0.08 nM
